Source: the DeepSol protein solubility set

Experiment: soluble on expression in E. coli; label from the status in PepcDB or PDB records

Sequence	soluble on expression in E. coli
MGSDKIHHHHHHMKIGILSQFPELYSTRRLVAACESRGHEAVVINTLNCYMNINSIKPSIHYQGQELTGFDAIIPRIHASVTFYGCAVVRQFEMMGVFAANDSISIARSRDKLRALQLLSRKGIGMPITGFANKPNDIPDLINMVGGAPLVIKLLEGTQGIGVVLAETKTAAESVIEAFLGLKANIMLQEYIKESNGSDIRCFVVGDKVVASMKRQGPEGDFRSNLHLGGCGEKVKITPKERKMAVAAVKAMGLVVAGVDILRSNRGPLILEVNSAPGIEGIEQTTGISVTEPIVEYIEKMVLAQKSNRPVIA	not soluble
FVEAIHAAEERVWITSPYFIPDEAVTAALTLAVLRGVDVRLLLPSRPDHYVVYAASSLYAFDAVRAGVRVFRYEPGFLHQKVVLVDNDITAIGSANLDNRSFRLNFELMLLTVDSDFSSQVESMLTADFNLAREISVQ	not soluble
MKMWQRKTDSSGVIQMDLKKLEGIFEGMLFASGDKVSIEKLSSITGIDKKTVKLVINNMIVKYNNDPSRGITIREINNGYQLCSKPEYYDYIKQLFEPKQRSGLSQAALETLAIIAYNRPITKAKIEQIRGVNSDSAITKLLEKNLIREAGRLDAPGKPVLYETTDEFFRSFGFKSDADLPIFELNDIHETVEINQNSEQEKADTELEKQEKA	not soluble
MDTKNLTAVQLMELDSCTRCGECVKWCPTYAASGQKPGLAPRDKILRWRQYMNKSYGLKAKLFGPTEIPQSELEEFKDDVHGCTTCGICATVCESGINTVELWESLRTNLVKKGIGPFGKQGMFPKLEHHHHHH	not soluble
MGSDKIHHHHHHVQLSENVLLLGNRHFNYFLVGKKEAAIIECGVSGGVYSFQKQWEKLPQKPEVKYLVAMHAHFDHVCGIPALQKMFPAAVLLASSPAEAVLKKAKIMENFFAQDEKMLDLLADEGIIPRGLQSPNVTEIALDKLIAEGDEIKLGGDLNIKVLDAPGHSPCSLACYLPAEQVMFISDACGFQISDEDIFPVFFQAYDIYLETIKRLMSYPSKLLAIPHERIWTGRNIDAFYRRALSSAEQAFNIIRDLLDQGWEDEKIEKELFARYYKGSLKIYTPENIQQCVQILLRRVKEKL	not soluble
SLLIVYNEYLIHIYHSFQWAELQCETDSCIKMLLVADPQILGNTFDTKLYWPLANFDSDRHLKRTYKSVVQHAAPDVICFLGDLMDEGSVANDDQFAAYFTRFVNIFSQPTANTIMFYIPGDNDIGGEGLETIKSDRVLRFKQYFNEQDELTIDPMLRILNVNRISMTLPMNSAPSTEEPQPYTVLLSHMPILRWSDPFTYKVIDDFQPNVIFSAHEHKSRHVKTHRNQLTQGAPFEPLNTERSNRHEVVEFDLNYLKDTRELLEFIVPTCSYRMGEMKIGYGYAMFDGDKLRYTVLWTSQRFYQ	soluble
VRILATVAATAAAVAALITPAHADGPLGVKGDTLTLPLADAITALPVAEESRAGYQRSAFKHWVDADKDGCNTRSEVLKAEAVVAPEQGTRCKLSGGQWYSAYSNTYVNSASALDLDHLVPLAEGWDSGASAWTAKEREAYANDLGDDRSLIAVTAATNRSKADQDPAEWLPPYEPYHCQYLTDWIATKLRWQLTVDQAERDTLTQATTSCPNLPVEVTLAR	soluble
MVYPIRLYGDPVLRRKARPVEDFSGIKRLAEDMLETMFEAKGVGLAAPQIGLSQRLFVAVEYADEPEGEEERPLRELVRRVYVVANPVITYREGLVEGTEGCLSLPGLYSEEVPRAERIRVEYQDEEGRGRVLELEGYMARVFQHEIDHLDGILFFERLPKPKREAFLEANRAELVRFQKEARALLKELSQG	soluble
SAQKPKVDPHVGRLGYLQALVTEFQETQSQDAKEQVLANLANFAYDPSNYEYLRQLQVLDLFLDSLSEENETLVEFAIGGLCNLCPDRANKEHILHAGGVPLIINCLSSPNEETVLSAITTLMHLSPPGRSFLPELTATPVVQCMLRFSLSASARLRNLAQIFLEDFCSPRQVAEARSRQAHSALGIPLPRSVAPRQR	soluble
MAHHHHHHSLPIKIPDNLPAAKTLNEENIFFMDEDRAYHQDIRPLNIVIVNLMPTKIVTETQILRLIGNSPLQVNPTFIHTQTHKSQNTSKEHLIKFYETFEEIKNNKFDGMIVTGAPVETLSFENVDYWEELCRIFDWSVTNVTSTIHICWGAQAGLYHHYGIPKYELHEKLFGVFKHNLTERNIKLTRGFDDEFYAPHSRHTYVKREDIKKNPSLKILAESDEAGAYIVASENGKNIFVMGHAEYDGDTLNLEYIRDKNQGMNIKIPKNYFKDNDPEKGPMVTWRGHANLLFSNWLNYYVYQETPFELEG	soluble
MSTASGITMASMSTYAILGCGSVGHAVAEELVEEGKDVLILDADEGRVEALRDQDLNAQQADICETDVAQTVADRDVVLIMSPDVNANAEAVRNIRESGGEQFIVARADDPVSADDLTELGADVVINPSAVIADSALRALETGELEYKASQLGDVIDGTEERMAILIHRSPDPDSIASAAALRAIAASRDVDADIIYEGEIGHQENRAFVNLLGIELTSNEDVNLDEYDTFALVDVAKGGEPAVESVDIVIDHYEHEHELEHDAAFSDIRPNISATSTILTKYIQELDLNLDQSVATALLYGIRAETLDFKRDTTPADLTAAAYLYPFADHDTLEQVESPSMSPETLDVLAEAIRNREVQGSHLVSNAGFIRDRDALAQAAQHLLNLEGITTTAVFAIADDTIYLAARSKDIRMNIGKVLSDAFGGMGETAGHSTDASVEIPLGIFTGLDTSDDNRDTLLELTEEAVKRKLFEAMGVDSSSSESSNGN	not soluble
MDDREGSFVAVRRISQGLERGSVYNSSSAEAVPGSAAWLGRGLSCVCAQRRDSDANSTFDLTPAQEECLQSLQNRIDVAYDSTIPLHQEALRELWKLSFPEEELHGLISEQWKEMGWQGKDPSTDFRGGGFISLENLLYFARNFQKSFQDLLRKQVGDRSVWEYPFAVAGINLTFMLIQMLDLEAVKPRTIVGATFLKFLSENESAFDLLYCIAFKLMDQQWLSMRASYMEFNTVMKSTRRQLERELMLEDIMHLEDLPSYALLNQ	not soluble
MANIEIYTKATCPFCHRAKALLNSKGVSFQEIAIDGDAVKREEMIKRSGRTTVPQIFIDAQHIGGCDDLYALDARGGLDPLLR	not soluble
MGSDKIHHHHHHMDTLFKALSDPARRAILDSLRARDGQSLTDLEPQLDMTRFGVMKHLKLLEDAGLIVTKRQGRFKYHYLNPMPLQEMLDRWVAPFLQPQARHLSDLKAKLERSHTMGKPDFMMQTFIRCTQDALWDALTKADQMAAYHFMCNEVRGNASVGNVTEFVLPDGNPMLRQVTTELDPKSRIAATFEPMFMGPDAPASHMVYLIEPQGETCKLTIEHYDMAPGQEGFAEGWARLASSLKSYLETGKAMKGAA	not soluble
MSFDGFFLHHLTNELQEQIEKGRIQKVNQPFDHELVLTIRNNRRNYKLLLSAHPVFGRIQTTEANFQNPQNPNTFTMIMRKYLQGAVIETIQQIENDRILEIVVSNKNEIGDHIKATLVVEIMGKHSNIILIDKNEHKIIESIKHVGFSQNSYRTILPGSTYIAPPKTKAINPFDISDQTLFELLQTNDLSPKNLQQLLQGLGRDTALELSHCLKDNKLNDFRQFFSREYYPSLTEKSFSAVQFSSSHETFQSLGQLLDYYYQEKAEKDRIAQQASDLIHRVQSELEKNIKKLAKQQDELLATENAEEFRQKGELLTTYLSMVPNNQDVVVLDNYYTNQTIEISLDRALTPNQNAQRYFKKYQKLKEAVKHLKGIISDTENTITYLESVETSLNHASMEDINDIREELVETGFIKRRAHDKQHKRKK	not soluble
MKTGYVLKGRVIDGTLGPALEQGAVVTEGERIAWVGPQSGLPAQYAGDRHTVVDLPGRTIMPGLIDAHTHISFGESRSEEENALYTPVEFRTAKALWYARKVLQAGVTSAFDAATSYNIAQAVRDAIDTGMFEGPRFTVSGKQLTNHHGLEDSFPNEMAFPPGQSAVLVKTREDLVEAIHYQVKDEVDAIKVSGSNDNLITPDALGSSAFTYEEFKIIADETHRLGRLCSVHARSRDAALYAAQAGFDNLFHASYIDDEGIEACLKNGCVITPTLTLLVNLVEAKQSHAGASSAQAFRQEIEAASVNLRRAYDAGVPLLAGSESGWSPVPYGHWHAREMEIFVKLLGLTPLQAIHANTLACTRLLARHGHEVGKLEASRLADVLVLPGNPLEDITLLQRPSRFDYIFKGGTPVDRTAPAPRVRKWYERTKIFLAGVYEYDQENACGRLVQ	not soluble
MSLTAHRIGFLVWPGTKAMTLALAEEALRVAQRVHPEVVYELSFLQAELAEPAAVAGGWQLPGEPWTGRLEGLQKLFLLADEPPAAVAPALGSALKQLVRAGCSIGGLSAGVYPLAQLGLLDGYRAAVHWRWQDDFAERFPKVIATSHLFDWDRDRLTACGGMSVLDLLLAVLSRDHGAELAGAVSEELVVERIREGGERQRIPLQNRLGSSHPKLTQAVLLMEANIEEPLTTDEIAQHVCVSRRQLERIFKQYLNRVPSQYYLELRLNKARQMLMQTSKSIIQIGLSCGFSSGPHFSSAYRNFFGATPREDRNQRRSSSPFELSPVPAKGIITITTDPNSSSVDKLAAALEHHHHHH	soluble
MGSDKIHHHHHHMSARLDAQIAFLKQADRLKSVERANVLLDLSRPENSAEHSWHLALWALVLSPFAAPDVDVDRAIRMLLLHDLVEIETGDHPIHEVTDWQAVERAERAAARKLFGLLPPDQAADFHTLWTEFDADETADARYAKMLDRCQPMFQVLCADTPRPDHVEVVRENLSSGRAAYLAEAFPEAHAHARALLERHPPVTGGFGDRLEFLAEADRLKTVLRASRLMDDSRFENSAEHSWHIMLYAWVLGEYAAAPVDIDRVLRMLLLHDLVEIDAGDNPIHGNVDHAAQEALEAAAAERLFGLLPPDQGAGLRAIWQEFETAQSADALFGKAVDRVQTPIANLENGGGSWVTYDVSLQQLVARVGTPVSRGAPGLWDWLFPQLSDCFTRLGLRL	not soluble
MSLIWKRKITLEALNAMGEGNMVGFLDIRFEHIGDDTLEATMPVDSRTKQPFGLLHGGASVVLAESIGSVAGYLCTEGEQKVVGLEINANHVRSAREGRVRGVCKPLHLGSRHQVWQIEIFDEKGRLCCSSRLTTAILEGGSHHHHHH	soluble
MNVKPLQAKDVAEKVLFGELFILDVRNEADYEDWKIEGKQVSSINKPYFDLLDGVDHIVSELPKDKDVLVVCAKEGSSIFVAEQLTEAGLQNIYYLAGGMKAWSEYVKPIKVGNLKDGGSMYQFNRLGKGCLSYMVISNGEAAVIDAVRTAEAYEEFAKEHGVTIKNVMDTHLHADHISGGRKLAEKVGGTYWLPPKDAEEVVFSYEPLVEGSVITVGGTKIEIDALYSPGHTIGSTSFIVDDSYLLSGDILFVDSIGRPDLAGKAEDWVSDLRNTLYSRYKELSQNLVVLPAHYSKVSEMNESGIVSAKLKDLFANNAGLNIEDEGEFRKVVTENLPPQPNAYEEIRQTNMGKIHPSVDKEREMEIGPNRCAVHE	not soluble
MAEEPKGVPLSELSLQQLGELQKNCEQELNFFQESFNALKGLLTRNEKSISALDDVKIATAGHTALIPLSESLYIRAELSDPSKHLVEIGTGYFVELDREKAKAIFDRKKEHITKQVETVEGILKEKRRTRAYISDAFQTKVQSQLATMNTQ	not soluble
